In assay [1] the target is T1, biotinylated extracellular domains of human CD33 (Speed BioSystems, cat #YCP2045) (human, UniProt P20138 18-259, biotinylated).
T1 construct: extracellular domain
Briefly: SPR (ProteOn), biotinylated target on chip. As for the experimental part: (§1) Briefly, biotinylated human scCD3εγ was diluted in PBST (PBS, pH 7.4 containing 0.005% Tween 200) and coated on a NLC chip (BioRad) to a level of around 700-1400 resonance units (RU). The interaction of ankyrin repeat protein and human CD3 was then measured by injecting 300 μl running buffer (PBS, pH 7.4 containing 0.005% Tween 200) containing serial dilutions of ankyrin repeat proteins covering a concentration range between 64 nM and 4 nM for multi-trace SPR measurements, followed by a running buffer flow for at least 10 minutes at a constant flow rate of 60 μl/min (off-rate measurement). The regeneration was performed using 30 μl of 10 mM Glycine pH 2. The signals (i.e. resonance unit (RU) values) of the interspots and a reference injection (i.e. injection of running buffer only) were subtracted from the RU traces obtained after injection of ankyrin repeat protein (double-referencing). While binding was too weak for DARPin® protein #7, binding parameters (KD, on-rate, off-rate) against CD3 were determined for affinity matured constructs. On-rates (kₒₙ) and dissociation constants (KD) are given only as approximation because binding equilibrium was not appropriately reached even at highest samples concentration, leading to non-optimal fits for on-rates.
(§2) The binding affinities of two purified ankyrin repeat proteins on recombinant human CD33 and CD123 target respectively were analyzed using a ProteOn instrument (BioRad) and the measurement was performed according standard procedures known to the person skilled in the art. For that, DARPin® protein #25 (with binding specificity for CD33 and CD3), DARPin® protein #26 (with binding specificity for CD123 and […]) of the invention were subcloned and expressed as described above into derivatives of the pQE30 (Qiagen) expression vector, containing an N-terminal His-tag, CD33 or CD123 binding ankyrin repeat domains respectively, followed by one of the four CD3 specific ankyrin repeat protein constructs. The following steps were performed as described in A above. Briefly, biotinylated extracellular domains of human CD33 (provided by Speed BioSystems, Lot no cat #YCP2045) as target protein was used for the assessment of DARPin® protein #25 and biotinylated extracellular domains of human (uniprot ID 26951) for the assessment of DARPin® protein #26 accordingly.

The target of assay [2] is T2, human CD3 on primary human pan-T cells (human, UniProt P07766 23-207; P09693 23-182; P04234 22-171; P20963 22-164).
T2 construct: whole, on cells; Native complex on T cells isolated from PBMC; also called CD3 on Pan-T cells
T2 sequence (P07766 23-207, chain 1 of 4): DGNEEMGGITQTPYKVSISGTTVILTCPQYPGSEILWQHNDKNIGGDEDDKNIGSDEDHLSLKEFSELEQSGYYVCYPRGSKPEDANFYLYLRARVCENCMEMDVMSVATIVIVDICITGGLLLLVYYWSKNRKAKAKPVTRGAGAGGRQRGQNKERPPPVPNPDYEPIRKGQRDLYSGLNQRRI
T2 sequence (P09693 23-182, chain 2 of 4): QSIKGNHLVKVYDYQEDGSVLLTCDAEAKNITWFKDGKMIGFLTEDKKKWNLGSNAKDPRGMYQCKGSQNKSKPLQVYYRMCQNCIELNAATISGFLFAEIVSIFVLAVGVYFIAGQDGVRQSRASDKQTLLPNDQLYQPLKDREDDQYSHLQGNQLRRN
T2 sequence (P04234 22-171, chain 3 of 4): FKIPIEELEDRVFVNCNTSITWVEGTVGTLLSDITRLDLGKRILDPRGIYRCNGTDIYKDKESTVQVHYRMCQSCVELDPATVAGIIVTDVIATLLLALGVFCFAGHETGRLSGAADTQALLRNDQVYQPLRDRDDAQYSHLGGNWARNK
T2 sequence (P20963 22-164, chain 4 of 4): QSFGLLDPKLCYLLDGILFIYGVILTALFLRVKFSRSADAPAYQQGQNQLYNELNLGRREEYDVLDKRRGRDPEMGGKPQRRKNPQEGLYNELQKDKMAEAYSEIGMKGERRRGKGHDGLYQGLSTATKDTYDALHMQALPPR
Briefly: Mirrorball cytometry on primary human pan-T cells, 600 µM HSA. As for the experimental part:
The determination of CD3 binding was performed with primary human T cells using Mirrorball laser scanning imaging cytometry. Therefore, primary T cells were isolated from human peripheral blood mononuclear cells (PBMCs) using a pan-T cell purification kit (Miltenyi Biotec). A titration of DARPin® protein #7, DARPin® protein #8 and DARPin® protein #9 and DARPin® protein #10, formatted into a trispecific format (including CD33 and CD123 binding ankyrin repeat domains), DARPin® protein #11, DARPin® protein #12, DARPin® protein #13 and DARPin® protein #14 UN tetraspecific format (including an additional ankyrin repeat domain binding specifically to human serum albumin) were incubated with 50′000 pan-T cells per well in presence of 600 μM human serum albumin (to mimic physiological serum concentration) for 30 minutes at 4° C. Two benchmark T-cell engagers, AMG330 and flotetuzumab were applied as controls, targeting CD33 or CD123. After washing, CD3 binding was detected by 1:100-diluted anti-penta-His Alexa Fluor 488 antibody (Qiagen). After 30 min incubation at 4° C., cells were washed and resuspended in Cytofix fixation buffer (BD Biosciences) and counterstained by 5 μM DRAQ5 (Abcam) for 15 min at RT. Median of mean fluorescence intensities of Alexa Fluor 488 binding on far-red counterstained cells were measured by Mirrorball using Cellista software (SPT Labtech) and data was plotted using GraphPad Prism 8.

Assay [3] addresses T3, human scCD3εγ (scCD3εγ_Avi-Bio) (human, biotin on the C-terminal Avi-tag (in vitro, BirA) where the biotinylated form was used).
T3 construct: Used for all SPR and HTRF results on human CD3; also called recombinant human CD3; human CD3
T3 chain: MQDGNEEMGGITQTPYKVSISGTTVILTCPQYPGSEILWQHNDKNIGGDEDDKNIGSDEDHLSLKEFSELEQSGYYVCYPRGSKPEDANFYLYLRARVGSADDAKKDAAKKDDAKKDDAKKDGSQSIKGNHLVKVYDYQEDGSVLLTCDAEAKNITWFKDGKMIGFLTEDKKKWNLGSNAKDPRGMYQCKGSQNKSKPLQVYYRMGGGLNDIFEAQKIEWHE
Briefly: SPR (ProteOn), biotinylated scCD3εγ on NLC chip, DARPin as analyte. As for the experimental part: The binding affinities of four purified ankyrin repeat proteins on recombinant human CD3 target were analyzed using a ProteOn instrument (BioRad) and the measurement was performed according standard procedures known to the person skilled in the art. For that, DARPin® protein #7, DARPin® protein #8 and DARPin® protein #9 and DARPin® protein #10 of the invention were subcloned and expressed as described above into derivatives of the pQE30 (Qiagen) expression vector, containing an N-terminal His-tag, CD33 and CD123 binding ankyrin repeat domains, followed by one of the four CD3 specific ankyrin repeat protein constructs.
as §1
Dissociation constants (KD) were calculated from the estimated on- and off-rates using standard procedures known to the person skilled in the art.

The target of assay [4] is T4, biotinylated extracellular domains of human CD123 (uniprot ID 26951), Fc format (human, UniProt P26951 19-305, biotinylated).
T4 construct: extracellular domain
T4 sequence (looked up): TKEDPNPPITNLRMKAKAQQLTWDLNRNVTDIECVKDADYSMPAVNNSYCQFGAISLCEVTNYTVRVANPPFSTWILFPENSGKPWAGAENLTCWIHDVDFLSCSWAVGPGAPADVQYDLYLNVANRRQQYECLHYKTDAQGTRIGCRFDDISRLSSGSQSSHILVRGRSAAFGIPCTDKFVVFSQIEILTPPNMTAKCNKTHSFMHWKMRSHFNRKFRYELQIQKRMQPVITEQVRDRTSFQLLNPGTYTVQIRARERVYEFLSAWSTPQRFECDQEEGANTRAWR
Briefly: SPR (ProteOn), biotinylated target on chip. On the procedure: as §1, §2

T1 sequence (P20138 18-259): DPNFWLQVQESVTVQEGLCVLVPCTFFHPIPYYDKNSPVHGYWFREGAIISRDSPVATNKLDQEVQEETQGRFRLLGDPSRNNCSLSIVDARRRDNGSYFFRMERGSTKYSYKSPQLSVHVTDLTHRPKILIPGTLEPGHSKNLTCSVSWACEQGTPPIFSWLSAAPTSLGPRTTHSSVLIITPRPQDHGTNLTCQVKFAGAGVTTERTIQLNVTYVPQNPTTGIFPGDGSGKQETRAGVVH

B1: DARPin® protein #25 (designed binder)
chain: DLGDKLLLAATSGQDDEVRILLAAGADVNAKDYDGDTPLHLAADEGHLEIVEVLLKAGADVNAKDYSGSTPLHAAAAYGHLEIVEVLLKAGADVNAQDVFGYTPADLAAYVGHEDIAEVLQKAAGSPTPTPTTPTPTPTTPTPTPTGSDLGQKLLEAAWAGQDDEVRILLAAGADVNAKNSRGWTPLHTAAQTGHLEIFEVLLKAGADVNAKNDKRVTPLHLAAALGHLEIVEVLLKAGADVNARDSWGTTPADLAAKYGHGDIAEVLQKLN
notes: CD33-CD3; not shown: N-terminal His-tag
In assay [1], B1 showed a Kd of 7.3 nM, a koff of 0.0304 s⁻¹ and a kon of 4.2e+06 M⁻¹ s⁻¹.

B2: DARPin® protein #8 (designed binder)
chain: DLGKKLLEAARAGQDDEVRILMANGADVNALDWLGHTPLHLAAYEGHLEIVEVLLKNGADVNAIDDNNGFTPLHLAAIDGHLEIVEVLLKNGADVNAQDKFGKTAFDISIDNGNEDLAEILQKAAGSPTPTPTTPTPTPTTPTPTPTGSDLGDKLLLAATSGQDDEVRILLAAGADVNAKDYDGDTPLHLAADEGHLEIVEVLLKAGADVNAKDYSGSTPLHAAAAYGHLEIVEVLLKAGADVNAQDVFGYTPADLAAYVGHEDIAEVLQKAAGSPTPTPTTPTPTPTTPTPTPTGSDLGQKLLEAAWAGQDDEVRELLKAGADVNAKNSRGWTPLHTAAQTGHLEIFEVLLKAGADVNAKDDKGVTPLHLAAALGHLEIVEVLLKAGADVNAQDSWGTTPADLAAKYGHEDIAEVLQKAA
notes: CD123-CD33-CD3 ankyrin repeat protein, no half-life extension; also called DARPin® #8; not shown: N-terminal His-tag
Take B2: the EC50 in assay [2] was 250 to 400 nM. Also, in assay [3], the Kd is ~35 nM, the koff came out at 0.0015 s⁻¹ and the kon was ~49000 M⁻¹ s⁻¹.

B3: DARPin® protein #9 (designed binder)
chain: DLGKKLLEAARAGQDDEVRILMANGADVNALDWLGHTPLHLAAYEGHLEIVEVLLKNGADVNAIDDNNGFTPLHLAAIDGHLEIVEVLLKNGADVNAQDKFGKTAFDISIDNGNEDLAEILQKAAGSPTPTPTTPTPTPTTPTPTPTGSDLGDKLLLAATSGQDDEVRILLAAGADVNAKDYDGDTPLHLAADEGHLEIVEVLLKAGADVNAKDYSGSTPLHAAAAYGHLEIVEVLLKAGADVNAQDVFGYTPADLAAYVGHEDIAEVLQKAAGSPTPTPTTPTPTPTTPTPTPTGSDLGQKLLEAAWAGQDDEVRELLKAGADVNAKNSRGWTPLHTAAQTGHLEIFEVLLKAGADVNAKNDKRVTPLHLAAALGHLEIVEVLLKAGADVNARDSWGTTPADLAAKYGHQDIAEVLQKAA
notes: CD123-CD33-CD3 ankyrin repeat protein, no half-life extension; also called DARPin® #9; not shown: N-terminal His-tag
For B3, the EC50 in assay [2] is 50 to 100 nM. In assay [3], the Kd was ~15 nM, the koff came to 0.0013 s⁻¹ and the kon is ~89000 M⁻¹ s⁻¹.

B4: DARPin® protein #10 (designed binder)
chain: DLGKKLLEAARAGQDDEVRILMANGADVNALDWLGHTPLHLAAYEGHLEIVEVLLKNGADVNAIDDNNGFTPLHLAAIDGHLEIVEVLLKNGADVNAQDKFGKTAFDISIDNGNEDLAEILQKAAGSPTPTPTTPTPTPTTPTPTPTGSDLGDKLLLAATSGQDDEVRILLAAGADVNAKDYDGDTPLHLAADEGHLEIVEVLLKAGADVNAKDYSGSTPLHAAAAYGHLEIVEVLLKAGADVNAQDVFGYTPADLAAYVGHEDIAEVLQKAAGSPTPTPTTPTPTPTTPTPTPTGSDLGQKLLEAAWAGQLDEVRILLKAGADVNAKNSRGWTPLHTAAQTGHLEIFEVLLKAGADVNAKTNKRVTPLHLAAALGHLEIVEVLLKAGADVNARDTWGTTPADLAAKYGHRDIAEVLQKAA
notes: CD123-CD33-CD3 ankyrin repeat protein, no half-life extension; also called DARPin® #10; not shown: N-terminal His-tag
The molecule B4 returned an EC50 in assay [2] of 5 to 15 nM. In assay [3], the Kd was ~6 nM, the koff came out at 0.00041 s⁻¹ and the kon was ~82000 M⁻¹ s⁻¹.

B5: DARPin® protein #26 (designed binder)
chain: DLGKKLLEAARAGQDDEVRILMANGADVNALDWLGHTPLHLAAYEGHLEIVEVLLKNGADVNAIDDNNGFTPLHLAAIDGHLEIVEVLLKNGADVNAQDKFGKTAFDISIDNGNEDLAEILQKAAGSPTPTPTTPTPTPTTPTPTPTGSDLGQKLLEAAWAGQDDEVRILLAAGADVNAKNSRGWTPLHTAAQTGHLEIFEVLLKAGADVNAKNDKRVTPLHLAAALGHLEIVEVLLKAGADVNARDSWGTTPADLAAKYGHGDIAEVLQKLN
notes: not shown: N-terminal His-tag
With B5, in assay [4], the Kd was found to be 9.5 nM, the koff stood at 0.017 s⁻¹ and the kon amounted to 1.79e+06 M⁻¹ s⁻¹.

For the origin of these results see US20240254229A1 (Molecular Partners, published 2024).
